Experimental data: patent US20180273595A1

Tests used:
[1] = target: recombinant His-tagged full-length ERG (UniProt P11308); assay: Kd table of synthetic peptides on ERG; assay not given
[2] = target: recombinant His-tagged full-length ERG (UniProt P11308); assay: OctetRED; Kd table of synthetic peptides on ERG

recombinant His-tagged full-length ERG, sequence (P11308 whole entry): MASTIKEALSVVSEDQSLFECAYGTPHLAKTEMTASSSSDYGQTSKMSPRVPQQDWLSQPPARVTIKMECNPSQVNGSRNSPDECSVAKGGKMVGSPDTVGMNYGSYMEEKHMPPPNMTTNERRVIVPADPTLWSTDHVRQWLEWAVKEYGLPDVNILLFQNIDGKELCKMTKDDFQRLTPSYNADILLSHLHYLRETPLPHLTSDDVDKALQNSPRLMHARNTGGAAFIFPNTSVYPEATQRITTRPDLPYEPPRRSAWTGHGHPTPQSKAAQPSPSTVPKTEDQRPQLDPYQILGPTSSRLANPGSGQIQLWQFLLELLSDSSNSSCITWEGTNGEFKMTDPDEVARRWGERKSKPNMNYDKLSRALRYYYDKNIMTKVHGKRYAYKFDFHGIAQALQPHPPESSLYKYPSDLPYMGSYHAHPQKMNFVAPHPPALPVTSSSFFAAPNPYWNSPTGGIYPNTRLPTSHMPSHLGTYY

Substance	Kd [1] [µM]	Kd [2] [µM]
3-mer PYL capped at both termini (Ac-PYL-NH2) (peptide)	7.5	
3-mer PYL capped at the N-terminus only (Ac-PYL) (peptide)	8.7	
7-mer LPPYLFT capped at the C-terminus only (LPPYLFT-NH2) (peptide)		> 100
EIP1 capped at both termini (Ac-LPPYLFT-NH2) (peptide)	> 100	> 100
